# Target: Recombinant human PTEN protein (human, UniProt P60483 1-403 (dog entry))
# Assay: cell-based or functional assay
# Recombinant human PTEN protein, sequence (P60483 whole entry): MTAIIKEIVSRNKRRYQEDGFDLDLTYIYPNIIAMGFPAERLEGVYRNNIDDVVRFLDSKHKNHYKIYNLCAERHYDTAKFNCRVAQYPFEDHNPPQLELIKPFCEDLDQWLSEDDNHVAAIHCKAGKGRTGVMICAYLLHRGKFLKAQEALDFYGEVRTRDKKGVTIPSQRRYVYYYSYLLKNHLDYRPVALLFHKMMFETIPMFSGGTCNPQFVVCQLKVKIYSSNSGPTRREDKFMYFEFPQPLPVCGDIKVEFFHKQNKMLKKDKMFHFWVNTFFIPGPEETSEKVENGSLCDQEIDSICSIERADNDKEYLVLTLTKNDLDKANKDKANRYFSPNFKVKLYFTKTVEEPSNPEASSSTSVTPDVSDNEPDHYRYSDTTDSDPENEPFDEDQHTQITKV
binder,measurement,value
RRRRRRRRHYRYVDTTDVDPENEPFDEDQHTQITKV (C-terminal amide) [TGN-3 peptide],"IC50, in vitro PTEN activity assay (lipid phosphatase, C8-PIP3 liposome, Malachite Green)",87.1 µM
same,"PTEN activity remaining with 10 µM peptide, compared with positive control",86%
